From the supplement of paper PMC10065799, “High-throughput profiling of sequence recognition by tyrosine kinases and SH2 domains using bacterial peptide display” (eLife, 2023)

What follows are sequences tested against Jak2 (UniProt O60674) (assay: phosphorylation enrichment, bacterial display (enrichment ratio); higher = better substrate or ligand; peptides without Tyr show the background).
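Note: 11-residue human phosphosite peptides and single-mutation variants displayed on the E. coli surface, counted by deep sequencing, each peptide's frequency after selection divided by its frequency in the unselected input library; frequency after pTyr selection over input frequency; kinase dosed for 20-30% of maximal phosphorylation in three min.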

Sequence of Jak2 (O60674 whole entry, looked up): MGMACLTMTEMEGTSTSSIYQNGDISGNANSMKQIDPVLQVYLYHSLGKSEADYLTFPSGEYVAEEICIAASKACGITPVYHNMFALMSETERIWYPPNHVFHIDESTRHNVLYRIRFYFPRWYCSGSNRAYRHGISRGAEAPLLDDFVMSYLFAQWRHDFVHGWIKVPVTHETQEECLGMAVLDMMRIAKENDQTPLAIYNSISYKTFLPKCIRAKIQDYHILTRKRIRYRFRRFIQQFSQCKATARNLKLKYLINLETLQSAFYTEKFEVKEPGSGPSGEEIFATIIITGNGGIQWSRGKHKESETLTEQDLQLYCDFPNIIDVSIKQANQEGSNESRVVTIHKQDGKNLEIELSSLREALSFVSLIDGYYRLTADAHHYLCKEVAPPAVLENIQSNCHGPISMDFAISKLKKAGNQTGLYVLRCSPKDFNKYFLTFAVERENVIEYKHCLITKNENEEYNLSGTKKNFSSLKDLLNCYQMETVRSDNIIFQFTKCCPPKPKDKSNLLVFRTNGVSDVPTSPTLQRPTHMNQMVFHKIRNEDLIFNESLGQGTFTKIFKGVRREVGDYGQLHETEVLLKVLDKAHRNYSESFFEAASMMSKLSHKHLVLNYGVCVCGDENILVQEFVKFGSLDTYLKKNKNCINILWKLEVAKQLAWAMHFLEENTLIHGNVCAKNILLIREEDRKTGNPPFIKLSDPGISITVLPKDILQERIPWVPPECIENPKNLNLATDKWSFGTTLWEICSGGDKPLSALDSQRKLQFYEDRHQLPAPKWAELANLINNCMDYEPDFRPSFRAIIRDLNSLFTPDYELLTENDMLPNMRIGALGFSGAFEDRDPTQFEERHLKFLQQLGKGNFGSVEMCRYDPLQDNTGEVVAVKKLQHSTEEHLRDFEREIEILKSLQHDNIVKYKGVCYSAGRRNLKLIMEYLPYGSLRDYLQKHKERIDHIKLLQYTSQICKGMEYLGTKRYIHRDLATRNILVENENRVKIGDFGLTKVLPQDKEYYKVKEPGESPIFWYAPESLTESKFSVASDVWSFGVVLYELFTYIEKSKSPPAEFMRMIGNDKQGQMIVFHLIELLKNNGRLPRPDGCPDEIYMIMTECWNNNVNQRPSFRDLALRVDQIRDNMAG

Sequence | phosphorylation enrichment
VHKKGYNKLNQ [ZNF676_Y98_E96K] | 0.569
PVGDAYKKKGL [NMNAT1_Y55] | 0.787
CLGNQYVNVMN [SLC3A1_Y461_R456C] | 1
FPCSVYVPDEW [INSR_Y1011] | 1.11
IFCIQYNIRAF [MYH4_Y820] | 1.57
CASQLYPRHKH [DCTN4_Y263] | 1.02
KNKNRYKNILP [PTPN11_Y279] | 0.984
ELTSKYRGGGG [HBA1_Y141_V136E] | 0.678
LNTFHYAGVSA [POLR2A_Y1109] | 0.584
PARLEYCENEK [IRS1_Y46_Y47C] | 1.76
YDEYRYRSFIK [CFTR_Y517_V520F] | 1.14
CTTIHYNYMCD [TP53_Y234_N239D] | 0.625
HRGHLYLAIEY [TEK_Y899_Y897H] | 0.977
NKEPRYQEDPP [TJP2_Y479] | 0.832
PSQRRYLYYYS [PTEN_Y174_V175L] | 1.99
DGQSVYKLTDF [TBK1_Y153] | 0.765
TIMTDYNPNYC [ALK_Y1092] | 1.24

Sequence | phosphorylation enrichment
MALDIYRASFF [ALK_Y1278_R1275L_YF] | 0.715
LSDVIYVILRK [PMP22_Y153_G150D] | 1.23
ALCHFYKLNII [ETV6_Y402_R399C_YF] | 1.26
REDIFYTSKLW [AKR1C2_Y81] | 0.947
LGMSQYFRLFN [CPT2_Y217_D213G] | 3.24
MPQNEYIELHC [NSA2_Y6_R11C] | 0.939
EKEKKYMLPLD [DNM2_Y563] | 0.849
FTFDPYSEEEP [IL2RB_Y387_D391E_YF] | 0.917
PIQLFYTRRNT [GHR_Y86] | 0.713
QMVDMYASSFM [AVPR2_Y124_G122D_YF] | 1.47
DAVAVYHGKIS [SH2D1A_Y7] | 0.603
RFLRGYQQDAF [HLA-A_Y137_R138Q_YF] | 0.965
FLNSIYKSRDE [ROS1_Y2227] | 0.612
ALPVFYAATIA [SLC20A2_Y187] | 0.886
FPDFVYKRIKA [DPYSL2_Y479] | 0.793
ETKKQYNSFTF [TMED3_Y85_D86N_YF] | 0.719

These sequences were tested on Fer (mouse) in the same assay as above.

Sequence | phosphorylation enrichment
VHKKGYNKLNQ [ZNF676_Y98_E96K] | 0.439
PVGDAYKKKGL [NMNAT1_Y55] | 0.609
CLGNQYVNVMN [SLC3A1_Y461_R456C] | 0.475
FPCSVYVPDEW [INSR_Y1011] | 0.72
IFCIQYNIRAF [MYH4_Y820] | 0.596
CASQLYPRHKH [DCTN4_Y263] | 0.44
KNKNRYKNILP [PTPN11_Y279] | 0.703
ELTSKYRGGGG [HBA1_Y141_V136E] | 0.313
LNTFHYAGVSA [POLR2A_Y1109] | 0.469
PARLEYCENEK [IRS1_Y46_Y47C] | 0.816
YDEYRYRSFIK [CFTR_Y517_V520F] | 0.64
CTTIHYNYMCD [TP53_Y234_N239D] | 0.465
HRGHLYLAIEY [TEK_Y899_Y897H] | 0.741
NKEPRYQEDPP [TJP2_Y479] | 0.59
PSQRRYLYYYS [PTEN_Y174_V175L] | 0.92
DGQSVYKLTDF [TBK1_Y153] | 0.775
TIMTDYNPNYC [ALK_Y1092] | 0.548

Sequence | phosphorylation enrichment
MALDIYRASFF [ALK_Y1278_R1275L_YF] | 0.599
LSDVIYVILRK [PMP22_Y153_G150D] | 0.398
ALCHFYKLNII [ETV6_Y402_R399C_YF] | 0.692
REDIFYTSKLW [AKR1C2_Y81] | 0.543
LGMSQYFRLFN [CPT2_Y217_D213G] | 0.499
MPQNEYIELHC [NSA2_Y6_R11C] | 0.557
EKEKKYMLPLD [DNM2_Y563] | 0.489
FTFDPYSEEEP [IL2RB_Y387_D391E_YF] | 0.549
PIQLFYTRRNT [GHR_Y86] | 0.913
QMVDMYASSFM [AVPR2_Y124_G122D_YF] | 0.9
DAVAVYHGKIS [SH2D1A_Y7] | 0.379
RFLRGYQQDAF [HLA-A_Y137_R138Q_YF] | 0.518
FLNSIYKSRDE [ROS1_Y2227] | 0.342
ALPVFYAATIA [SLC20A2_Y187] | 1.2
FPDFVYKRIKA [DPYSL2_Y479] | 0.424
ETKKQYNSFTF [TMED3_Y85_D86N_YF] | 0.513

The sequences below were run on AncSZ in the same assay as above.

Sequence | phosphorylation enrichment
VHKKGYNKLNQ [ZNF676_Y98_E96K] | 0.408
PVGDAYKKKGL [NMNAT1_Y55] | 0.677
CLGNQYVNVMN [SLC3A1_Y461_R456C] | 1.11
FPCSVYVPDEW [INSR_Y1011] | 1.5
IFCIQYNIRAF [MYH4_Y820] | 1.57
CASQLYPRHKH [DCTN4_Y263] | 0.673
KNKNRYKNILP [PTPN11_Y279] | 0.78
ELTSKYRGGGG [HBA1_Y141_V136E] | 0.515
LNTFHYAGVSA [POLR2A_Y1109] | 0.656
PARLEYCENEK [IRS1_Y46_Y47C] | 1.75
YDEYRYRSFIK [CFTR_Y517_V520F] | 1.06
CTTIHYNYMCD [TP53_Y234_N239D] | 0.796
HRGHLYLAIEY [TEK_Y899_Y897H] | 1.51
NKEPRYQEDPP [TJP2_Y479] | 0.852
PSQRRYLYYYS [PTEN_Y174_V175L] | 1.77
DGQSVYKLTDF [TBK1_Y153] | 0.725
TIMTDYNPNYC [ALK_Y1092] | 1.33

Sequence | phosphorylation enrichment
MALDIYRASFF [ALK_Y1278_R1275L_YF] | 0.936
LSDVIYVILRK [PMP22_Y153_G150D] | 1.27
ALCHFYKLNII [ETV6_Y402_R399C_YF] | 1.19
REDIFYTSKLW [AKR1C2_Y81] | 1.07
LGMSQYFRLFN [CPT2_Y217_D213G] | 0.966
MPQNEYIELHC [NSA2_Y6_R11C] | 1.39
EKEKKYMLPLD [DNM2_Y563] | 0.885
FTFDPYSEEEP [IL2RB_Y387_D391E_YF] | 1.22
PIQLFYTRRNT [GHR_Y86] | 1.18
QMVDMYASSFM [AVPR2_Y124_G122D_YF] | 1.29
DAVAVYHGKIS [SH2D1A_Y7] | 0.593
RFLRGYQQDAF [HLA-A_Y137_R138Q_YF] | 1.11
FLNSIYKSRDE [ROS1_Y2227] | 0.566
ALPVFYAATIA [SLC20A2_Y187] | 0.823
FPDFVYKRIKA [DPYSL2_Y479] | 0.682
ETKKQYNSFTF [TMED3_Y85_D86N_YF] | 0.64

The sequences below were run against EPHB2 (UniProt P29323) in the same assay as above.
Sequence of EPHB2 (P29323 whole entry, looked up): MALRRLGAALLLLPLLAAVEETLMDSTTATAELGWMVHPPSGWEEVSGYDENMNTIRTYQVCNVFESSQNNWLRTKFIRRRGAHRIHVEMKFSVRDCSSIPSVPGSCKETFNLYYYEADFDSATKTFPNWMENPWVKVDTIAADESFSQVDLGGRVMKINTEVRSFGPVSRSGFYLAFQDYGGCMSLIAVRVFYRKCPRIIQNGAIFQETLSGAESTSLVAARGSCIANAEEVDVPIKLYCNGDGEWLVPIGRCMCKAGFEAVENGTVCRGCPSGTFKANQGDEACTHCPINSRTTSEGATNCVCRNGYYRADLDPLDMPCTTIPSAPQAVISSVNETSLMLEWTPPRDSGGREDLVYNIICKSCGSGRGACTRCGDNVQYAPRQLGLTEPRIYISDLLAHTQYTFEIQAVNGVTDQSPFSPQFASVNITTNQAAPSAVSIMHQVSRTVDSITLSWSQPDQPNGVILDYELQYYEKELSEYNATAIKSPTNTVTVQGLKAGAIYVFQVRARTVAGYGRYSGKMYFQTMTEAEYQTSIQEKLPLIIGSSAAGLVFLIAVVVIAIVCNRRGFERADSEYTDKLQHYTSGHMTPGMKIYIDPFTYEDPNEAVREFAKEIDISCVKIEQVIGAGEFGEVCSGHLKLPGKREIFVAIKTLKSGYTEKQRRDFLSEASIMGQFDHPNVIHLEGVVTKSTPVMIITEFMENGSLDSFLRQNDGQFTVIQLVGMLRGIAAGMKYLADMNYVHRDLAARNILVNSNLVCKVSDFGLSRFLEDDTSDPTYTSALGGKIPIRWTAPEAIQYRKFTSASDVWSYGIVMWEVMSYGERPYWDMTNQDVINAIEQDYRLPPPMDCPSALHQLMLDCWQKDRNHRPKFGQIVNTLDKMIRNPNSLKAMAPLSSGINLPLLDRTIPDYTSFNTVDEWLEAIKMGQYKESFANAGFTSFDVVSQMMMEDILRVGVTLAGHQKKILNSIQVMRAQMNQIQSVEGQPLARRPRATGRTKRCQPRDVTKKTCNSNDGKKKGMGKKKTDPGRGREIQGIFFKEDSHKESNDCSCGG

Sequence | phosphorylation enrichment
VHKKGYNKLNQ [ZNF676_Y98_E96K] | 0.374
PVGDAYKKKGL [NMNAT1_Y55] | 0.924
CLGNQYVNVMN [SLC3A1_Y461_R456C] | 0.608
FPCSVYVPDEW [INSR_Y1011] | 0.606
IFCIQYNIRAF [MYH4_Y820] | 0.678
CASQLYPRHKH [DCTN4_Y263] | 0.464
KNKNRYKNILP [PTPN11_Y279] | 0.665
ELTSKYRGGGG [HBA1_Y141_V136E] | 0.385
LNTFHYAGVSA [POLR2A_Y1109] | 0.415
PARLEYCENEK [IRS1_Y46_Y47C] | 0.823
YDEYRYRSFIK [CFTR_Y517_V520F] | 0.596
CTTIHYNYMCD [TP53_Y234_N239D] | 0.515
HRGHLYLAIEY [TEK_Y899_Y897H] | 1.16
NKEPRYQEDPP [TJP2_Y479] | 0.607
PSQRRYLYYYS [PTEN_Y174_V175L] | 0.697
DGQSVYKLTDF [TBK1_Y153] | 0.37
TIMTDYNPNYC [ALK_Y1092] | 0.531

Sequence | phosphorylation enrichment
MALDIYRASFF [ALK_Y1278_R1275L_YF] | 0.584
LSDVIYVILRK [PMP22_Y153_G150D] | 0.55
ALCHFYKLNII [ETV6_Y402_R399C_YF] | 0.732
REDIFYTSKLW [AKR1C2_Y81] | 0.796
LGMSQYFRLFN [CPT2_Y217_D213G] | 0.839
MPQNEYIELHC [NSA2_Y6_R11C] | 0.862
EKEKKYMLPLD [DNM2_Y563] | 0.473
FTFDPYSEEEP [IL2RB_Y387_D391E_YF] | 0.576
PIQLFYTRRNT [GHR_Y86] | 0.775
QMVDMYASSFM [AVPR2_Y124_G122D_YF] | 0.805
DAVAVYHGKIS [SH2D1A_Y7] | 0.442
RFLRGYQQDAF [HLA-A_Y137_R138Q_YF] | 0.518
FLNSIYKSRDE [ROS1_Y2227] | 0.517
ALPVFYAATIA [SLC20A2_Y187] | 0.756
FPDFVYKRIKA [DPYSL2_Y479] | 0.468
ETKKQYNSFTF [TMED3_Y85_D86N_YF] | 0.475
